The numbers were not newly measured in patent US20190345209, which cites them from elsewhere.

The data set has as its system BCR-ABL1 zinc finger protein (three-finger ZFP) (synthetic construct). Conditions: CITED (ref 50); p122 prints 78 uM, evidently a typo.

Regarding “GCAGAAGCC (double strand) [BCR-ABL1 9 bp binding site (in Go92, Go66, Go85 promoters)]”, the dissociation constant Kd – broadly, a measure of binding affinity in units of concentration – was 0.078 nM.
